Experimental data: PMC11425648

Target: free UbcH8 (Ube2L6), GST tag removed (human)
Assay: SAXS; free UbcH8 (GST removed) at 300 μM, 10 °C, six 10-min frames; dimer crystal structure 1WZV fitted to the dummy atom model

stoichiometry N: 2
Substance: free UbcH8 (Ube2L6), GST tag removed (enzyme)
